The Immune Epitope Database (IEDB)

Legend:
Test in all cases: IEDB peptide-MHC binding, purified MHC/competitive/radioactivity; filed as Kd, often an IC50 or EC50 that approximates it; ≥ and ≤ were set here for values at or beyond the usual limits of such assays
Settings in all cases: source organism: Plasmodium falciparum 3D7
[1] = molecular target: HLA-A*01:01
[2] = molecular target: HLA-A*30:02
[3] = molecular target: HLA-A*26:01
[4] = molecular target: HLA-A*29:02
[5] = molecular target: HLA-A*24:02
[6] = molecular target: HLA-A*11:01
[7] = molecular target: HLA-A*31:01
[8] = molecular target: HLA-A*33:01
[9] = molecular target: HLA-A*03:01
[10] = molecular target: HLA-A*68:01
[11] = molecular target: HLA-A*23:01

| Sequence | Kd [1] | Kd [2] | Kd [3] | Kd [4] | Kd [5] | Kd [6] | Kd [7] | Kd [8] | Kd [9] | Kd [10] | Kd [11] |
| --- | --- | --- | --- | --- | --- | --- | --- | --- | --- | --- | --- |
| SSPLFNNFY | 117 nM | 41 nM | 17 nM |  |  |  |  |  |  |  |  |
| RMTSLKNEL |  | 14 nM |  | ≥ 10000 nM | ≥ 10000 nM |  |  |  |  |  |  |
| FSYDLRLNK |  |  |  |  |  | 4.9 nM | 461 nM | 1260 nM | 29 nM | 15 nM |  |
| IFISFYLINK |  |  |  |  |  | 1060 nM | 462 nM | 394 nM | 1990 nM | 363 nM |  |
| KFNILSSPL |  | 1280 nM |  | ≥ 10000 nM | 1730 nM |  |  |  |  |  | 1760 nM |
| LQMMNVNLQK |  |  |  |  |  | 7.2 nM | 435 nM | 1110 nM | 25 nM | 320 nM |  |
| LIENELMNY | 412 nM | 161 nM | 228 nM | 3940 nM |  |  |  |  |  |  |  |
| KSMLKELIK |  |  |  |  |  | 151 nM | 450 nM | ≥ 10000 nM | 189 nM | ≥ 10000 nM |  |
| AFLESQSMNK |  |  |  |  |  | 1090 nM | 9890 nM | ≥ 10000 nM | 3060 nM | ≥ 10000 nM |  |
| ELEASISGKY | 142 nM | 463 nM | 23 nM | ≥ 10000 nM |  |  |  |  |  |  |  |
| QEEQKKYIY | ≥ 10000 nM | ≥ 10000 nM | ≥ 10000 nM | ≥ 10000 nM |  |  |  |  |  |  |  |
| PVVCSMEYK |  |  |  |  |  | 80 nM | ≥ 10000 nM | ≥ 10000 nM | 1940 nM | 414 nM |  |
| NVDQQNDMY | 47 nM | ≥ 10000 nM | ≥ 10000 nM | ≥ 10000 nM |  |  |  |  |  |  |  |
| PVLTSLFNK |  |  |  |  |  | 25 nM | 5110 nM | ≥ 10000 nM | 1950 nM | ≥ 10000 nM |  |
| VYRHCEYIL |  | 3330 nM |  | ≥ 10000 nM | 2200 nM |  |  |  |  |  | 64 nM |
| KYEALIKLL |  | ≥ 10000 nM |  | ≥ 10000 nM | 2860 nM |  |  |  |  |  | 484 nM |
| TYKKKNNHI |  |  |  | ≥ 10000 nM | 30 nM |  |  |  |  |  | 81 nM |
| VYYNILIVL |  | 1130 nM |  | ≥ 10000 nM | 265 nM |  |  |  |  |  | 52 nM |
| QNADKNFLY | 3810 nM | 663 nM | 166 nM | 24 nM |  |  |  |  |  |  |  |
| FISFYLINK |  |  |  |  |  | 9 nM | 2190 nM | 1460 nM | 19 nM | 18 nM |  |
| YLFNQHIKK |  |  |  |  |  | 7.8 nM | 4920 nM | 7970 nM | 14 nM | 14 nM |  |
| LTNHLINTPK |  |  |  |  |  | 5.9 nM | 62 nM | 373 nM | 11 nM | 10 nM |  |
| NHEQKLSEY | ≥ 10000 nM | ≥ 10000 nM | ≥ 10000 nM | ≥ 10000 nM |  |  |  |  |  |  |  |

| Sequence | Kd [1] | Kd [2] | Kd [3] | Kd [4] | Kd [5] | Kd [6] | Kd [7] | Kd [8] | Kd [9] | Kd [10] | Kd [11] |
| --- | --- | --- | --- | --- | --- | --- | --- | --- | --- | --- | --- |
| TFLESSFDIK |  |  |  |  |  | 2510 nM | ≥ 10000 nM | ≥ 10000 nM | ≥ 10000 nM | ≥ 10000 nM |  |
| SSFFMNRFY | 239 nM | 7.5 nM | 166 nM | 36 nM |  |  |  |  |  |  |  |
| IYYFDGNSW |  | 3020 nM |  | 3100 nM |  |  |  |  |  |  | 6.1 nM |
| SSPLFNNFYK |  |  |  |  |  | 0.74 nM | 1610 nM | 1730 nM | 100 nM | 6.3 nM |  |
| ALERLLSLK |  |  |  |  |  | 369 nM | 3430 nM | ≥ 10000 nM | 233 nM | ≥ 10000 nM |  |
| IIALLIIPPK |  |  |  |  |  | 5.3 nM | ≥ 10000 nM | 8430 nM | 30 nM | 82 nM |  |
| DFFLKSKFNI |  | 2610 nM |  | ≥ 10000 nM | 1650 nM |  |  |  |  |  | 304 nM |
| QAAESNERY | 353 nM | 3010 nM | 142 nM | ≥ 10000 nM |  |  |  |  |  |  |  |
| YQNFQNADK |  |  |  |  |  | 177 nM | ≥ 10000 nM | ≥ 10000 nM | 2710 nM | ≥ 10000 nM |  |
| YYNNFNNNY |  | 58 nM |  |  |  |  |  |  |  |  | 126 nM |
| SQDLACIFDA |  |  |  |  |  | ≥ 10000 nM | ≥ 10000 nM | ≥ 10000 nM | ≥ 10000 nM | ≥ 10000 nM |  |
| IALLIIPPK |  |  |  |  |  | 108 nM | 2930 nM | 1400 nM | 1240 nM | 1960 nM |  |
| LEASISGKY | ≥ 10000 nM | 87 nM | 3950 nM | ≥ 10000 nM |  |  |  |  |  |  |  |
| LNEQLIYTY | ≥ 10000 nM | 4130 nM | 6210 nM | 2400 nM |  |  |  |  |  |  |  |
| TTRYKYLNK |  |  |  |  |  | 848 nM | 416 nM | 652 nM | 117 nM | 2560 nM |  |
| KILIKIPVTK |  |  |  |  |  | 60 nM | 1660 nM | ≥ 10000 nM |  | ≥ 10000 nM |  |
| MFVPKYFEL |  | 8560 nM |  | 2560 nM | 266 nM |  |  |  |  |  | 11 nM |
| SYKSSKRDKF |  | 88 nM |  | ≥ 10000 nM | 256 nM |  |  |  |  |  | 797 nM |
| QQNQESKIMK |  |  |  |  |  | 77 nM | ≥ 10000 nM | ≥ 10000 nM | 3470 nM | ≥ 10000 nM |  |
| VSSIFISFY | 144 nM | 55 nM | 1640 nM | 1800 nM |  |  |  |  |  |  |  |
| EQRLPLLPK |  |  |  |  |  | 765 nM | 423 nM | 987 nM | 1090 nM | 1910 nM |  |
| SQVSNSDSYK |  |  |  |  |  | 83 nM | ≥ 10000 nM | ≥ 10000 nM | 1660 nM | 1380 nM |  |
| SFFMNRFYI |  | 1020 nM |  | 200 nM | 172 nM |  |  |  |  |  | 11 nM |

| Sequence | Kd [1] | Kd [2] | Kd [3] | Kd [4] | Kd [5] | Kd [6] | Kd [7] | Kd [8] | Kd [9] | Kd [10] | Kd [11] |
| --- | --- | --- | --- | --- | --- | --- | --- | --- | --- | --- | --- |
| ALKISQLQK |  |  |  |  |  | 96 nM | 3200 nM | ≥ 10000 nM | 15 nM | ≥ 10000 nM |  |
| ALERLLSLKK |  |  |  |  |  | 822 nM | ≥ 10000 nM | ≥ 10000 nM | 147 nM | ≥ 10000 nM |  |
| RYQDPQNYEL |  | 84 nM |  | ≥ 10000 nM |  |  |  |  |  |  | 124 nM |
| FQAAESNERY | 8960 nM | 372 nM | 3510 nM | 1780 nM |  |  |  |  |  |  |  |
| SISGKYDIK |  |  |  |  |  | 50 nM | ≥ 10000 nM | ≥ 10000 nM | 2090 nM | 1740 nM |  |
| SSFDIKSEVK |  |  |  |  |  | 19 nM | ≥ 10000 nM | ≥ 10000 nM | 1900 nM | 31 nM |  |
| LYYLFNQHI |  | ≥ 10000 nM |  | ≥ 10000 nM | 33 nM |  |  |  |  |  | 1.4 nM |
| KINSNFLLK |  |  |  |  |  | 6.4 nM | 68 nM | ≥ 10000 nM | 17 nM | 2740 nM |  |
| NFINFIKVL |  | ≥ 10000 nM |  | ≥ 10000 nM | ≥ 10000 nM |  |  |  |  |  | 1040 nM |
| NIFLRFIPDK |  |  |  |  |  | 2120 nM | ≥ 10000 nM | 1090 nM | ≥ 10000 nM | 1530 nM |  |
| YLINKHWQR |  |  |  |  |  | 676 nM | 4.4 nM | 7.7 nM | 1030 nM | 3.7 nM |  |
| LFDKDTFFK |  |  |  |  |  | 167 nM | 5710 nM | 1190 nM | 931 nM | 101 nM |  |
| ELFDKDTFFK |  |  |  |  |  |  | 3680 nM | 13 nM | 144 nM | 3.6 nM |  |
| VVCSMEYKK |  |  |  |  |  | 54 nM | 891 nM | ≥ 10000 nM | 443 nM | 167 nM |  |
| ILCIEGEQK |  |  |  |  |  | 641 nM | 7530 nM | ≥ 10000 nM | 1400 nM | 526 nM |  |
| IFLRFIPDK |  |  |  |  |  | 1280 nM | 1640 nM | 1310 nM | 2440 nM | ≥ 10000 nM |  |
| RLPLLPKTWK |  |  |  |  |  |  | 340 nM | ≥ 10000 nM | 11 nM | 2890 nM |  |
| TYGIIVPVL |  | 1520 nM |  | ≥ 10000 nM | 248 nM |  |  |  |  |  | 41 nM |
| GTMYILLKK |  |  |  |  |  | 1.2 nM | 29 nM | 8450 nM | 2.2 nM | 3.1 nM |  |
| HLNIPIGFK |  |  |  |  |  | 1.3 nM | 183 nM |  | 2.3 nM | 2.8 nM |  |
| MQSSFFMNR |  |  |  |  |  | 1.1 nM | 29 nM | 75 nM |  | 3.8 nM |  |
| AVSEIQNNK |  |  |  |  |  | 11 nM | 1430 nM | ≥ 10000 nM | 25 nM | 14 nM |  |
| FVSSIFISFY | 118 nM | 84 nM | 11 nM | 22 nM |  |  |  |  |  |  |  |
